{
  "source": "patent US20150025225A1",
  "about": "(SHIONOGI, published 2015)",
  "key": {"[1]": {"target": "T1, human EL-411-459 fragment (human)", "T1 construct": "Used as HEK293 lysate", "T1 chain": "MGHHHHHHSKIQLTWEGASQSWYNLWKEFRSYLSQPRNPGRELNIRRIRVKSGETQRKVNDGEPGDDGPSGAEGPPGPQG", "test": "sandwich ELISA with human EL fragment lysate, as Example 10"}, "Baboon EL-C2 tag [2]": {"target": "T2, Baboon EL-C2 tag (baboon, UniProt Q9Y5X9 21-500 (human entry), limits assumed)", "T2 construct": "used as heparin extract of transfected HEK293F cells; also called baboon EL heparin extract", "T2 chain": "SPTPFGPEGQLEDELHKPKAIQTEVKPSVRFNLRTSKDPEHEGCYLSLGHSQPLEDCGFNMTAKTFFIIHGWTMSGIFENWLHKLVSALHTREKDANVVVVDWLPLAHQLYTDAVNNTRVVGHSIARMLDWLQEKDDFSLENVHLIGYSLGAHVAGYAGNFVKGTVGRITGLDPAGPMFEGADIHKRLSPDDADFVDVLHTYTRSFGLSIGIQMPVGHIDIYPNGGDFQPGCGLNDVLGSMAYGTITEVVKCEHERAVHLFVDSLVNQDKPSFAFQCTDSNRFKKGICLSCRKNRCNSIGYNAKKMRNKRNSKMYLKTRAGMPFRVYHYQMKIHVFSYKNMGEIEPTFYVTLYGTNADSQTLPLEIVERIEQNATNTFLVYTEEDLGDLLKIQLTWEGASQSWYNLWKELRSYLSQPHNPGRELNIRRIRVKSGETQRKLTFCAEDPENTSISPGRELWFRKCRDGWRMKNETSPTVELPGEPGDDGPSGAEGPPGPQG", "test": "Biacore SPR; EL captured by anti-C2-tag antibody, antibody as analyte, bivalent fit; column head prints nM, kd/ka gives M", "experimental": "(§1) The binding affinities of anti-EL antibodies were measured using Biacore. Anti-C2-tag antibody was immobilized on a sensor chip CM5 (GE HealthCare) using amine-coupling and baboon EL heparin extract or cynomolgus monkey heparin extract diluted with HBS-P (GE Healthcare) was added and EL were captured on the sensor chip. Then anti-EL antibodies diluted with HBS-P were added and the binding affinities were calculated by bivalent fitting of BIAevaluation software (FIG. 9A-G)."}, "[3]": {"target": "T3, cynomolgus monkey EL-C2 tag (cynomolgus monkey, UniProt Q9Y5X9 21-500 (human entry), limits assumed)", "T3 construct": "used as heparin extract of transfected HEK293F cells; also called cynomolgus EL", "T3 chain": "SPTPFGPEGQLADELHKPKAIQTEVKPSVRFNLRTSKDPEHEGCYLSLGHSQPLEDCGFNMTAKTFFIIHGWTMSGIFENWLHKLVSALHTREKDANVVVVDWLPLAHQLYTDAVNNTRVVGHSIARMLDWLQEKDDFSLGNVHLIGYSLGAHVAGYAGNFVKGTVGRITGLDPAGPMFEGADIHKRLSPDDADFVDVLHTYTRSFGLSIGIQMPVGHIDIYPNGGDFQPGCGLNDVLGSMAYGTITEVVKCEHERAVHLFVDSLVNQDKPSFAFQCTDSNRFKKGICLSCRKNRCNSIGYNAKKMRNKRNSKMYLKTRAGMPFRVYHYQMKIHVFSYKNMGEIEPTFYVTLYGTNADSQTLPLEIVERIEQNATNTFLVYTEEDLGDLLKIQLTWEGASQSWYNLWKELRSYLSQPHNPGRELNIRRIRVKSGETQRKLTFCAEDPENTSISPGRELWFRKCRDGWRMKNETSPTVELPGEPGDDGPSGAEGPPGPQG", "test": "Biacore SPR; EL captured by anti-C2-tag antibody, antibody as analyte, bivalent fit; column head prints nM, kd/ka gives M", "experimental": "as §1"}, "[4]": {"target": "T4, human EL[331-459]-mouse EL-C2 tag (human/mouse chimera, UniProt Q9WVG5 21-500 (mouse entry))", "T4 chain": "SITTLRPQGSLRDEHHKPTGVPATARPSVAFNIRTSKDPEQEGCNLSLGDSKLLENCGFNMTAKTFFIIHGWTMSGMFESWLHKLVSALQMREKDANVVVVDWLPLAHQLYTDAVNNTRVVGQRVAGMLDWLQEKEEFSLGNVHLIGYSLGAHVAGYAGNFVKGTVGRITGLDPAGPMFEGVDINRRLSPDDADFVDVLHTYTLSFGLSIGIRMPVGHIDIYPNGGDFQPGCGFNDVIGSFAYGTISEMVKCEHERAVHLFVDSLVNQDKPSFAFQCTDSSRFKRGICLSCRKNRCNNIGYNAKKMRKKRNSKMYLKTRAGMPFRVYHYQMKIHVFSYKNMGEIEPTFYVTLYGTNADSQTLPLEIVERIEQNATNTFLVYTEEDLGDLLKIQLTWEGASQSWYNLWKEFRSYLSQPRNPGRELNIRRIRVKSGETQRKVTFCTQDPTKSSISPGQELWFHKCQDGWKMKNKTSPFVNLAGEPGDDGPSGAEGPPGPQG", "test": "cell-based or functional assay"}, "Baboon EL-C2 tag [5]": {"target": "T2, Baboon EL-C2 tag", "test": "cell-based or functional assay"}, "rabbit EL-C2 tag": {"target": "T5, rabbit EL-C2 tag (rabbit)", "T5 chain": "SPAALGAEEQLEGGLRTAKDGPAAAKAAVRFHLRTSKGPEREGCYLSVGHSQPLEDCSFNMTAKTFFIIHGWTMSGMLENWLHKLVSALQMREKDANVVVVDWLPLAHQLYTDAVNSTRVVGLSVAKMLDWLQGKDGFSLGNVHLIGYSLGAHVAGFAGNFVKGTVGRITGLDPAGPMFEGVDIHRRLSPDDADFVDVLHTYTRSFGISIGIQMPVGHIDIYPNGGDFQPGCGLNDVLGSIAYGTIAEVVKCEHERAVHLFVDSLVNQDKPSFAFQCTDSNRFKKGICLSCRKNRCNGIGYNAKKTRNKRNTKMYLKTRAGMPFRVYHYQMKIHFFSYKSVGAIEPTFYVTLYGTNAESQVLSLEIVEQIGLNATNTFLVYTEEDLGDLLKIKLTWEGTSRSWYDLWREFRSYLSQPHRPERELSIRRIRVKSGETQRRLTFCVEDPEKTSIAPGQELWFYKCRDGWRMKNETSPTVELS", "test": "cell-based or functional assay"}, "[6]": {"target": "T3, cynomolgus monkey EL-C2 tag", "test": "cell-based or functional assay"}, "[7]": {"target": "T3, cynomolgus monkey EL-C2 tag", "test": "ELISA-type titration, A450 against antibody concentration; protocol not described in the text"}, "Baboon EL-C2 tag [8]": {"target": "T2, Baboon EL-C2 tag", "test": "Biacore SPR; EL heparin extract captured by anti-C2-tag antibody on CM5, antibody as analyte, bivalent fit", "experimental": "as §1"}, "[9]": {"target": "T3, cynomolgus monkey EL-C2 tag", "test": "Biacore SPR; EL heparin extract captured by anti-C2-tag antibody on CM5, antibody as analyte, bivalent fit", "experimental": "as §1"}},
  "data": [
    {"binder": "41H8 antibody (antibody, IgG1, V domains shown) VH: QVTLKESGPGILQPSQTLSLTCSFSGFSLSTYGMGVGWIRQPSGKGLEWLAHIWWNENKYYNTDLKSRLTISKDTSNNQVFLKIASVDTADTATYYCARIGPGVPFDYWGQGTTITVSS VL: DIQMTQSPSSLSASLGGKVTITCKASQDINKFIAWYQHKPGKGPRLLIHYTSTLQPGIPSRFNGSGSGRDYSFTISNLEPEDIATYYCLQYDILTWTFGGGTKLEIK", "values": [
      {"measurement": "binding result", "setting": "[1]", "result": "no binding"},
      {"measurement": "Kd", "setting": "Baboon EL-C2 tag [2]", "result": 2.6, "unit": "nM"},
      {"measurement": "Kd", "setting": "[3]", "result": 0.63, "unit": "nM"},
      {"measurement": "Neutralizing activity_IC50", "setting": "[4]", "result": 15, "unit": "nM"},
      {"measurement": "Neutralizing activity_IC50", "setting": "Baboon EL-C2 tag [5]", "result": 7.2, "unit": "nM"},
      {"measurement": "Neutralizing activity_IC50", "setting": "rabbit EL-C2 tag", "result": 391, "unit": "nM"},
      {"measurement": "Neutralizing activity_IC50", "setting": "[6]", "result": 5.9, "unit": "nM"},
      {"measurement": "EC50 (read off the curve)", "setting": "[7]", "result": "~7", "unit": "ng/mL"},
      {"measurement": "koff", "setting": "Baboon EL-C2 tag [8]", "result": 0.00029, "unit": "s⁻¹"},
      {"measurement": "kon", "setting": "Baboon EL-C2 tag [8]", "result": 110000, "unit": "M⁻¹ s⁻¹"},
      {"measurement": "koff", "setting": "[9]", "result": 0.0001, "unit": "s⁻¹"},
      {"measurement": "kon", "setting": "[9]", "result": 160000, "unit": "M⁻¹ s⁻¹"}
    ]}
  ]
}
